{"source": "patent CN114031685A", "about": "(INST MILITARY MEDICINE ACADEMY MILITARY SCIENCES PLA, dated 2022)", "key": {"[1]": {"biological_target": "新冠病毒野生型 S蛋白 (on pseudovirus / live virus) (SARS-CoV-2, UniProt P0DTC2 14-1273)", "test": "cell-based or functional assay"}, "SARS-CoV-2 NTD蛋白": {"biological_target": "T1, SARS-CoV-2 NTD蛋白 (SARS-CoV-2, UniProt P0DTC2 14-303)", "T1 construct": "domain: NTD", "test": "ELISA, antigen coated at 2 μg/mL"}, "SARS-CoV-2 WT S2蛋白": {"biological_target": "T2, SARS-CoV-2 WT S2蛋白 (SARS-CoV-2, UniProt P0DTC2 686-1213)", "T2 construct": "domain: S2", "test": "ELISA, antigen coated at 2 μg/mL"}}, "data": [{"binder": "抗SARS-CoV-2全人源单克隆抗体ZW2G10 (antibody, V domains shown, also called 单抗ZW2G10) VH: EVQLVESGGGLVQPGRSLRLSCAASGFTFDDYAMHWVRQAPGKGLEWVSGITWNSGTIGYADSVKGRFIISRDNAKNSLHLQMNSLRVEDTALYYCAKDNSDYSGYYWELENYGMDVWGQGTTVTVSS VL: QSVLTQPPSVSGAPGQRVTISCTGSSSNIGAGYDVHWYQQLPGTAPKLLIYDNNNRPSGVPDRFSGSKSGTSASLAITGLQAEDEADYYCQSFDSSLSGVVFGGGTRLTVLR", "values": [{"measurement": "假病毒中和 EC50", "setting": "[1]", "result": 0.0142, "unit": "µg/mL"}, {"measurement": "真病毒中和 EC50 (Vero E6)", "setting": "[1]", "result": 1.08, "unit": "µg/mL"}, {"measurement": "binding result", "setting": "SARS-CoV-2 NTD蛋白", "result": "no binding"}, {"measurement": "binding result", "setting": "SARS-CoV-2 WT S2蛋白", "result": "no binding"}]}]}
